B1: Guanine nucleotide-binding protein alpha-4 subunit (Dictyostelium discoideum (Slime mold)), P34042 (parent)
chain: MRFKCFGSEETEQSSKIDKSIETDRRKLRKDVKLLLLGPGESGKSTIFKQMKIIQEDGGYSVEELLEYRAFVYSNCISQMEALLTASAKLNIELEVENKQRAANVLRRTIGNEPWLLLAADIKHLWEDKGIKETYAQKDKHFQLNDSAAYFFDNIDRYMREDFVPNEQDVLRCRVRTTGIQESEFTFDKIRLKIVDVGGQRSQRRKWIHCFDCVTAVIFVAAMSDYDQVLREDESVNRTRESLALFKEIVNCDYFKETPIVLFLNKKDLFKEKLKRVPLQSCFSDYTGPNKYKDAAMFIQSQYLAQGPSPRTIYTHATCAVDTENIKFVFRAVRQTILSQALEHF
partner: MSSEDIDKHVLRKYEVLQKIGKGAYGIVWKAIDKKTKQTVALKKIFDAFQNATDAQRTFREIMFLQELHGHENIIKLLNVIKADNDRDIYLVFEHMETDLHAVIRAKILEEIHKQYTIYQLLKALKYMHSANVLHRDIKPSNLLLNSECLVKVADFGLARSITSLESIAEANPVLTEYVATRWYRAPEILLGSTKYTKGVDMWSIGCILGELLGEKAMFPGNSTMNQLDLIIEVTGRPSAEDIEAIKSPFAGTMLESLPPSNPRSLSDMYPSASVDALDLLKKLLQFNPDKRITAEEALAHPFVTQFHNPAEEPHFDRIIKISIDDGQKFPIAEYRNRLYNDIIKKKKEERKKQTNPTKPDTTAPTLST

Variants of: B1
Conditions: with erk2_dicdi erkB
For MRFKCFGSEETEQSSKIDKSIETDRRKLRKDVKLLLLGPGESGKSTIFKQMKIIQEDGGYSVEELLEYRAFVYSNCISQMEALLTASAKLNIELEVENKQRAANVLRRTIGNEPWLLLAADIKHLWEDKGIKETYAQKDKHFQLNDSAAYFFDNIDRYMREDFVPNEQDVLRCRVRTTGIQESEFTFDKIRLKIVDVGGLRSQRRKWIHCFDCVTAVIFVAAMSDYDQVLREDESVNRTRESLALFKEIVNCDYFKETPIVLFLNKKDLFKEKLKRVPLQSCFSDYTGPNKYKDAAMFIQSQYLAQGPSPRTIYTHATCAVDTENIKFVFRAVRQTILSQALEHF [Q200L], the “effect of a mutation on the interaction” value was “decreasing interaction”.
MRFKCFGSEETEQSSKIDKSIETDRRKLRKDVKLLLLGPGESGKSTIFKQMKIIQEDGGYSVEELLEYRAFVYSNCISQMEALLTASAKLNIELEVENKQRAANVLEETIGNEPWLLLAADIKHLWEDKGIKETYAQKDKHFQLNDSAAYFFDNIDRYMREDFVPNEQDVLRCRVRTTGIQESEFTFDKIRLKIVDVGGQRSQRRKWIHCFDCVTAVIFVAAMSDYDQVLREDESVNRTRESLALFKEIVNCDYFKETPIVLFLNKKDLFKEKLKRVPLQSCFSDYTGPNKYKDAAMFIQSQYLAQGPSPRTIYTHATCAVDTENIKFVFRAVRQTILSQALEHF [R107E;R108E] was tested, and the “effect of a mutation on the interaction” value was “decreasing interaction”.

— IntAct's records for PubMed 19765570
